Source: US20250177521A1

Molecular target: Fc gamma receptor (FcγR)
Test: cell-based or functional assay

mean fold difference in CD107a on CD3-CD56+ NK cells against samples without mAbs, RA [fold]	mean fold difference in CD107a on CD3-CD56+ NK cells against samples without mAbs, SLE [fold]	Substance
3.1	1.8	Obinutuzumab (antibody)
1.9	1.4	non-glycoengineered, wild type glycosylated OBZ (antibody)
1.2	1.5	rituximab (antibody)
